Measurements reported in patent publication US20190381088, “ANTI-IL-17 APTAMER HAVING IMPROVED RETENTION IN BLOOD” (ZENYAKU KOGYO CO., LTD., published 2019).

T1: IL-17 (human IL-17) (Homo sapiens, UniProt Q16552 Q16552:24-155)
T1 sequence: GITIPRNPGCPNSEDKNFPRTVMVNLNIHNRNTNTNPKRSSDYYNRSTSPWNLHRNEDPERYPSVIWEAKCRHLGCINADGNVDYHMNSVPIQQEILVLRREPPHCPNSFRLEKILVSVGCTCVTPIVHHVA


What was measured:
IL-17 (human IL-17) [1] = target: T1, IL-17 (human IL-17); assay: cell_activity; inhibition of IL-17 (10 ng/mL) + mouse TNF induced IL-6 in NIH3T3 cells, 37 C preincubation 30 min; conditions: chain copies: 2 inferred (homodimer)
Protocol: (§1) Human IL-17 (10 ng/mL) and aptamers diluted to various concentrations were pre-incubated at 37° C. for 30 min, and added to NIH3T3 cells (ATCC, CRL1658, 1.25×10⁵ cell/mL) together with mouse TNF (2 ng/mL). Then, after incubation for 24 hr, the culture supernatant was collected. After preservation at −70° C., the amount of produced IL-6 was measured by the ELISA method. The IL-17 inhibitory action of each aptamer was evaluated from the amount of produced IL-6.
A microtiter plate for ELISA was coated with rat anti-mouse IL-6 antibody (BD Biosciences, 2 μg/mL; 100 μL/well) diluted with PBS, and incubated at 4° C. overnight. The next day, the microtiter plate was washed 3 times with PBS/0.05% Tween 20, and blocked with PBS/1% BSA (200 μL/well) at room temperature for 2 hr. Then, the plate was washed 3 times with PBS/0.05% Tween 20. Recombinant mouse IL-6 (BD Biosciences; 100 μL/well) serially diluted with PBS/1% BSA/0.05% Tween 20 or culture supernatants (100 μL/well) were added to the plate. After incubation at room temperature for 2 hr, the plate was washed 3 times with PBS/0.05% Tween 20. Then, 100 μL/well of biotin conjugated rat anti-mouse IL-6 antibody (BD Biosciences) was added at final dilution of 1/500, and the mixture was reacted at room temperature for 1 hr. After washing 3 times with PBS/0.05% Tween 20, 100 μL/well of alkaline phosphatase conjugated streptavidin was added at final dilution of 1/1000. After 30 min at room temperature, the plate was again washed 4 times with PBS/0.05% Tween 20, and a substrate (1-Step PNPP; Thermo Fisher Scientific Inc; 100 μL/well) was added. After 15 min, aqueous sodium hydroxide solution (2N: 50 μL/well) was added to stop the reaction, and the plate was read on a microtiter reader (Bio-Rad) by using a 405 nm filter.

IL-17 (human IL-17) [2] = target: T1, IL-17 (human IL-17); assay: cell_activity; nucleic acid alone; IL-6 release from NIH3T3 cells; conditions: chain copies: 2 inferred (homodimer)
Protocol: Aptamers in which a brancher, a spacer, an ssH amino linker were added to the nucleic acid sequences of Example sequences 1, 2, 3 and 4, and 40 kDa 2 branched PEG was added (total PEG molecular weight: 80 kDa each) were synthesized (FIG. 1 structure 1). The IL-17 neutralization activity of each aptamer was measured along with the aptamer having the original nucleic acid sequence alone. The evaluation was based on the measurement of the amount of IL-6 released in the cultured cells by the stimulation of IL-17 and TNFα to the cells.
as §1
A microtiter plate for ELISA was coated with rat anti-mouse IL-6 antibody (BD Biosciences, 2 μg/mL; 100 μL/well) diluted with PBS, and incubated at 4° C. overnight. The next day, the microtiter plate was washed 3 times with PBS/0.05% Tween 20, and blocked with PBS/1% BSA (200 μL/well) at room temperature for 2 hr. Then, the plate was washed 3 times with PBS/0.05% Tween 20. […]

Row | Binder | IC50 (IL-17 (human IL-17) [1]) [pM] | IC50 (IL-17 (human IL-17) [2]) [pM]
1 | GGGUAGCCGGAGGAGTCAGTAAUCGGUACCC (mixed, 2'-OMe at 1-4,7,8,10,13,14,23-26,28; 2'-F at 11,17,18,27; PS at g6; DNA at A5,G9,T16,T20,C29-C31; rest 2'-OH RNA; 3' idT (stated for in vivo tests); 5' symmetrical brancher with spacer + ssH amino linker + 2 x 40 kDa branched PEG (80 kDa total)) [Example sequence 1 (aptamer No. 8) PEG-linker-spacer-brancher] | 41 | 
2 | GGGUAGCCGGAGGAGTCAGTAAUCGGUACCC (mixed, 2'-OMe at 1-4,7,8,10,13,14,23-26,28; 2'-F at 17,27; DNA at A5,G9,T16,T20,C29-C31; rest 2'-OH RNA; 3' idT (stated for in vivo tests); 5' symmetrical brancher with spacer + ssH amino linker + 2 x 40 kDa branched PEG (80 kDa total)) [Example sequence 2 (aptamer No. 48) PEG-linker-spacer-brancher] | 180 | 
3 | GGGUAGCCGGAGGAGTCAGTAAUCGGUACCC (mixed, 2'-OMe at 1-4,7,8,10,13,14,23-26,28-31; 2'-F at 11,17,18,27; PS at g6; DNA at A5,G9,T16,T20; rest 2'-OH RNA; 3' idT (stated for in vivo tests); 5' symmetrical brancher with spacer + ssH amino linker + 2 x 40 kDa branched PEG (80 kDa total)) [Example sequence 4 (aptamer No. 93) PEG-linker-spacer-brancher] | 60 | 
4 | GGGUAGCCGGAGGAGTCAGTAAUCGGUACCC (mixed, 2'-OMe at 1-4,7,8,10,13,14,23-26,28; 2'-F at 11,17,18,27; PS at g6; DNA at A5,G9,T16,T20,C29-C31; rest 2'-OH RNA; no PEG) [Example sequence 1 (aptamer No. 8) nucleic acid alone] |  | 223
5 | GGGUAGCCGGAGGAGTCAGTAAUCGGUACCC (mixed, 2'-OMe at 1-4,7,8,10,13,14,23-26,28-31; 2'-F at 11,17,18,27; PS at g6; DNA at A5,G9,T16,T20; rest 2'-OH RNA; no PEG) [Example sequence 4 (aptamer No. 93) nucleic acid alone] |  | 123
